Source: US20120237496

T1: Peptide-6a
T1 chain: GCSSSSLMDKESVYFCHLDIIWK

T2: Peptide-3
T2 chain: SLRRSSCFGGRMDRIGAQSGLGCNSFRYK

T3: Peptide-8 (not fully specified)
T3 chain: CQLYENKPRRPYILK

T4: Peptide-5 (not fully specified)
T4 chain: CDRVYIHPFHLK

T5: Peptide-6b
T5 chain: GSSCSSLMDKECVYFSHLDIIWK

T6: Peptide-13 (not fully specified)
T6 chain: CRPPGFSPFRK


Experiments:
Peptide-6a = target: T1, Peptide-6a
Peptide-3 = target: T2, Peptide-3
Peptide-8 = target: T3, Peptide-8
Peptide-5 = target: T4, Peptide-5
Peptide-6b = target: T5, Peptide-6b
Peptide-13 = target: T6, Peptide-13

| Protein | activity relative to G399V/G714K (B1) (Peptide-6a) [fold] | kapp ratio vs G399V/G714K (B1) (Peptide-6a) [fold] | kapp ratio vs G399V/G714K (B1) (Peptide-3) [fold] | activity relative to G399V/G714K (B1) (Peptide-1) [fold] | kapp ratio vs G399V/G714K (B1) (Peptide-1) [fold] | kapp ratio vs G399V/G714K (B1) (Peptide-8) [fold] | activity relative to G399V/G714K (B1) (Peptide-2) [fold] | kapp ratio vs G399V/G714K (B1) (Peptide-2) [fold] | activity relative to G399V/G714K (B1) (Peptide-7) [fold] | kapp ratio vs G399V/G714K (B1) (Peptide-7) [fold] | activity relative to G399V/G714K (B1) (Peptide-4) [fold] | kapp ratio vs G399V/G714K (B1) (Peptide-4) [fold] | activity relative to G399V/G714K (B1) (Peptide-5) [fold] | kapp ratio vs G399V/G714K (B1) (Peptide-5) [fold] | kapp ratio vs G399V/G714K (B1) (Peptide-6b) [fold] | kapp ratio vs G399V/G714K (B1) (Peptide-13) [fold] |
| --- | --- | --- | --- | --- | --- | --- | --- | --- | --- | --- | --- | --- | --- | --- | --- | --- |
| C10 (protein) YPYDVPDYAYPYDVPDYAYPYDVPDYAGSYDDGICKSSDCIKSAARLIQNMDATTEPCTDFFKYACGGWLKRNVIPETSSRYGNFDILRDELEVVLKDVLQEPKTEDIVAVQKAKALYRSCINESAIDSRGGEPLLKLLPDIYGWPVATENWEQKYGASWTAEKAIAQLNSKYGKKVLINLFVGTDDKNSVNHVIHIDQPRLGLPRRDYYECTGIYKEACTAYVDLMISVARLIRQEERLPIDENQLALEMNKVMELEKEIANATAKPEDRNDPMLLYNKMTLAQIQNNFSLEINGKPFSWLNFTNEIMSTVNISITNEEDVVVYAPEYLTKLKPILTKYSARDLQNLMSWRFIMDLVSSLSRTYKESRNAFRKALYVTTSETATWRRCANYVNGNMMNAVGRLYVEAAFAGESKHVVEDLIAQIREVFIQTLDDLTWMDAETKKRAEEKALAIKERIGYPDDIVSNDNKLNNEYLELNYKEDEYFENIIQNLKFSQSKQLKKLREKVDKDEWISGAAVVNAFYSSGRNQIVFPAGILQPPFFSAQQSNSLNYGGIGMVIGHEITHGFMDNVRNPNKDDDLVDWWTQQSASNFKEQSQCMVYQYGNFSWDLAGGQHLNGINTLGENIADNGGLGQAYRAYQNYIKKNGEEKLLPGLDLNHKQLFFLNFAQVWCGTYRPEYAVNSIKTDVHSPKNFRIIGTLQNSAEFSEAFHCRKNSYMNPEKKCRVW | 0.28 | 0.27 | 0.24 | 2.05 | 2.35 | 0.34 | 2.39 | 2.6 | 0.68 | 0.49 | 0.83 | 0.8 | 0.08 | 0.17 | 0.19 | 0.68 |
| C14 (protein) YPYDVPDYAYPYDVPDYAYPYDVPDYAGSYDDGICKSSDCIKSAARLIQNMDATTEPCTDFFKYACGGWLKRNVIPETSSRYGNFDILRDELEVVLKDVLQEPKTEDIVAVQKAKALYRSCINESAIDSRGGEPLLKLLPDIYGWPVATENWEQKYGASWTAEKAIAQLNSKYGKKVLINLFVGTDDKNSVNHVIHIDQPRLGLPSGDYYECTGIYKEACTAYVDLMISVARLIRQEERLPIDENQLALEMNKVMELEKEIANATAKPEDRNDPMLLYNKMTLAQIQNNFSLEINGKPFSWLNFTNEIMSTVNISITNEEDVVVYAPEYLTKLKPILTKYSARDLQNLMSWRFIMDLVSSLSRTYKESRNAFRKALYVTTSETATWRRCANYVNGNMMNAVGRLYVEAAFAGESKHVVEDLIAQIREVFIQTLDDLTWMDAETKKRAEEKALAIKERIGYPDDIVSNDNKLNNEYLELNYKEDEYFENIIQNLKFSQSKQLKKLREKVDKDEWISGAAVVNAFYSSGRNQIVFPAGILQPPFFSAQQSNSLNYGGIGMVIGHEITHGFMDNGRNFNKDDDLVDWWTQQSASNFKEQSQCMVYQYGNFSWDLAGGQHLNGINTLGENIADNGGLGQAYRAYQNYIKKNGEEKLLPGLDLNHKQLFFLNFAQVWCGTYRPEYAVNSIKTDVHSPKNFRIIGTLQNSAEFSEAFHCRKNSYMNPEKKCRVW |  | 0.3 | 0.24 |  | 1.98 | 0.43 |  | 2.01 |  | 0.59 |  | 0.72 |  | 0.2 | 0.24 | 0.71 |
| C15 (protein) YPYDVPDYAYPYDVPDYAYPYDVPDYAGSYDDGICKSSDCIKSAARLIQNMDATTEPCTDFFKYACGGWLKRNVIPETSSRYGNFDILRDELEVVLKDVLQEPKTEDIVAVQKAKALYRSCINESAIDSRGGEPLLKLLPDIYGWPVATENWEQKYGASWTAEKAIAQLNSKYGKKVLINLFVGTDDKNSVNHVIHIDQPRLGLPSGDYYECTGIYKEACTAYVDFMISVARLIRQEERLPIDENQLALEMNKVMELEKEIANATAKPEDRNDPMLLYNKMTLAQIQNNFSLEINGKPFSWLNFTNEIMSTVNISITNEEDVVVYAPEYLTKLKPILTKYSARDLQNLMSWRFIMDLVSSLSRTYKESRNAFRKALYVTTSETATWRRCANYVNGNMMNAVGRLYVEAAFAGESKHVVEDLIAQIREVFIQTLDDLTWMDAETKKRAEEKALAIKERIGYPDDIVSNDNKLNNEYLELNYKEDEYFENIIQNLKFSQSKQLKKLREKVDKDEWISGAAVVNAFYSSGRNQIVFPAGILQPPFFSAQQSNSLNYGGIGMVIGHEITHGFMDNVRNFNKDDDLVDWWTQQSASNFKEQSQCMVYQYGNFSWDLAGGQHLNGINTLGENIADNGGLGQAYRAYQNYIKKNGEEKLLPGLDLNHKQLFFLNFAQVWCGTYRPEYAVNSIKTDVHSPKNFRIIGTLQNSAEFSEAFHCRKNSYMNPEKKCRVW |  | 0.46 | 0.24 |  | 2.52 | 0.52 |  | 2.72 |  | 0.75 |  | 0.7 |  | 0.25 | 0.24 | 0.44 |
| C12 (protein) YPYDVPDYAYPYDVPDYAYPYDVPDYAGSYDDGICKSSDCIKSAARLIQNMDATTEPCTDFFKYACGGWLKRNVIPETSSRYGNFDILRDELEVVLKDVLQEPKTEDIVAVQKAKALYRSCINESAIDSRGGEPLLKLLPDIYGWPVATENWEQKYGASWTAEKAIAQLNSKYGKKVLINLFVGTDDKNSVNHVIHIDQPRLGLPRRDYYECTGIYKEACTAYVDLMISVARLIRQEERLPIDENQLALEMNKVMELEKEIANATAKPEDRNDPMLLYNKMTLAQIQNNFSLEINGKPFSWLNFTNEIMSTVNISITNEEDVVVYAPEYLTKLKPILTKYSARDLQNLMSWRFIMDLVSSLSRTYKESRNAFRKALYVTTSETATWRRCANYVNGNMENAVGRLYVEAAFAGESKHVVEDLIAQIREVFIQTLDDLTWMDAETKKRAEEKALAIKERIGYPDDIVSNDNKLNNEYLELNYKEDEYFENIIQNLKFSQSKQLKKLREKVDKDEWISGAAVVNAFYSSGRNQIVFPAGILQPPFFSAQQSNSLNYGGIGMVIGHEITHGFMDNGRNFNKDVDLVDWWTQQSASNFKEQSQCMVYQYGNFSWDLAGGQHLNGINTLGENIADNGGLGQAYRAYQNYIKKNGEEKLLPGLDLNHKQLFFLNFAQVWCGTYRPEYAVNSIKTDVHSPKNFRIIGTLQNSAEFSEAFHCRKNSYMNPEKKCRVW |  | 0.32 | 0.24 |  | 2.11 | 0.43 |  | 2.04 |  | 0.84 |  | 0.79 |  | 0.26 | 0.18 | 0.83 |
| C13 (protein) YPYDVPDYAYPYDVPDYAYPYDVPDYAGSYDDGICKSSDCIKSAARLIQNMDATTEPCTDFFKYACGGWLKRNVIPETSSRYGNFDILRDELEVVLKDVLQEPKTEDIVAVQKAKALYRSCINESAIDSRGGEPLLKLLPDIYGWPVATENWEQKYGASWTAEKAIAQLNSKYGKKVLINLFVGTDDKNSVNHVIHIDQPRLGLPSGDYYECTGIYKEACTAYVDLMISVARLIRQEERLPIDENQLALEMNKVMELEKEIANATAKPEDRNDPMLLYNKMTLAQIQNNFSLEINGKPFSWLNFTNEIMSTVNISITNEEDVVVYAPEYLTKLKPILTKYSARDLQNLMSWRFIMDLVSSLSRTYKESRNAFRKALYVTTSETATWRRCANYVNGNMMNAVGRLYVEAAFAGESKHVVEDLIAQIREVFIQTLDDLTWMDAETKKRAEEKALAIKERIGYPDDIVSNDNKLNNEYLELNYKEDEYFENIIQNLKFSQSKQLKKLREKVDKDEWISGAAVVNAFYSSGRNQIVFPAGILQPPFFSAQQSNSLNYGGIGMVIGHEITHGFMDNGRNFNKDVDLVDWWTQQSASNFKEQSQCMVYQYGNFSWDLAGGQHLNGINTLGENIADNGGLGQAYRAYQNYIKKNGEEKLLPGLDLNHKQLFFLNFAQVWCGTYRPEYAVNSIKTDVHSPKNFRIIGTLQNSAEFSEAFHCRKNSYMNPEKKCRVW |  | 0.3 | 0.24 |  | 1.78 | 0.35 |  | 1.56 |  | 0.36 |  | 0.91 |  | 0.18 | 0.18 | 0.39 |
| C11 (protein) YPYDVPDYAYPYDVPDYAYPYDVPDYAGSYDDGICKSSDCIKSAARLIQNMDATTEPCTDFFKYACGGWLKRNVIPETSSRYGNFDILRDELEVVLKDVLQEPKTEDIVAVQKAKALYRSCINESAIDSRGGEPLLKLLPDIYGWPVATENWEQKYGASWTAEKAIAQLNSKYGKKVLINLFVGTDDKNSVNHVIHIDQPRLGLPRRDYYECTGIYKEACTAYVDLMISVARLIRQEERLPIDENQLALEMNKVMELEKEIANATAKPEDRNDPMLLYNKMTLAQIQNNFSLEINGKPFSWLNFTNEIMSTVNISITNEEDVVVYAPEYLTKLKPILTKYSARDLQNLMSWRFIMDLVSSLSRTYKESRNAFRKALYVTTSETATWRRCANYVNGNMMNAVGRLYVEAAFAGESKHVVEDLIAQIREVFIQTLDDLTWMDAETKKRAEEKALAIKERIGYPDDIVSNDNKLNNEYLELNYKEDEYFENIIQNLKFSQSKQLKKLREKVDKDEWISGAAVVNAFYSSGRNQIVFPAGILQPPFFSAQQSNSLNYGGIGMVIGHEITHGFMDNGRNPNKDWDLVDWWTQQSASNFKEQSQCMVYQYGNFSWDLAGGQHLNGINTLGENIADNGGLGQAYRAYQNYIKKNGEEKLLPGLDLNHKQLFFLNFAQVWCGTYRPEYAVNSIKTDVHSPKNFRIIGTLQNSAEFSEAFHCRKNSYMNPEKKCRVW |  | 0.28 | 0.24 |  | 2.19 | 0.35 |  | 2.14 |  | 0.66 |  | 0.49 |  | 0.19 | 0.11 | 0.61 |
